Results as given in patent US11813311B2, “Treatment and prevention of metabolic diseases” (Singapore Health Services PTE LTD., priority 2019, dated 2023).

B1: X209: mouse anti-mouse IL-11Rα IgG (IgG1κ), neutralising; VH SEQ ID NO:24, VL SEQ ID NO:25 (antibody, V domains shown)
VH: QVQLQQPGAELVRPGSSVKLSCKASGYTFTNYWMHWLKQRPVQGLEWIGNIGPSDSKTHYNQKFKDKATLTVDKSSSTAYMQLNSLTSEDSAVYYCARGDYVLFTYWGQGTLVTVSA
VL: DIVLTQSPATLSLSPGERATLSCRASQSISNNLHWYQQKSHEAPRLLIKYASQSISGIPARFSGSGSGTDFTLSFSSLETEDFAVYFCQQSYSWPLTFGQGTKLEIK
modifications: Enx209 VH; Enx209 VL
B2: X203: mouse anti-mouse IL-11 IgG (IgG1κ), neutralising; VH SEQ ID NO:22, VL SEQ ID NO:23 (antibody, V domains shown)
VH: EVQLQQSGPELVKPGASVKIPCKASGYTFTDYNMDWVKQSHGKSLEWIGDINPHNGGPIYNQKFTGKATLTVDKSSSTAYMELRSLTSEDTAVYYCARGELGHWYFDVWGTGTTVTVSS
VL: DIVLTQSPASLAVSLGQRATISCRASKSVSTSGYSYIHWYQQKPGQPPKLLIYLASNLDSGVPARFSGSGSGTDFTLNIHPVEEEDAATYYCQHSRDLPPTFGGGTKLEIK
modifications: Enx203 VH; Enx203 VL

Columns and labels:
HFMCD-fed mice = experiment: HFMCD NASH model, antibody from week 6 to 10; format: in vivo, mouse; conditions: 10 mg/kg biweekly, four weeks of therapy from week 6
Protocol: (§1) FIGS. 20A to 20N. Therapeutic targeting of Il-11 inhibits and reverses NASH pathologies in preclinical models. (A) Schematic showing therapeutic use of X203 and X209 (10 mg/kg, biweekly) in HFMCD-fed mice for experiments shown in (B-E). X203, X209 or IgG isotype control were administered from week 6 to 10 of HFMCD diet. (B) Representative liver histological images (Masson's Trichrome staining; scale bars, 100 μm), (C) relative liver hydroxyproline content, (D) relative liver pro-inflammatory mRNA expression levels (n≥6/group) and (E) serum ALT levels. (F) Western blots of hepatic Erk activation status. (G) Schematic of X203 or IgG administration to MCD-fed db/db mice for experiments shown in H-N. Western blots of hepatic (H) Il-11 and Gapdh, (I) p-Erk and Erk. (J) Representative Masson's Trichrome images of liver from X203 or IgG-treated MCD-fed db/db mice (scale bars, 100 μm). The levels of (K) hepatic triglyceride, (L) relative liver hydroxyproline, (M) serum ALT, and (N) mRNA expression of liver pro-inflammatory markers (n≥5/group). (C-E,K-N) Data are shown as box-and-whisker with median (middle line), 25th-75th percentiles (box) and min-max percentiles (whiskers); two-tailed, Tukey-corrected Student's t-test. FC: fold change; NC: normal chow; HFMCD: high fat methionine- and choline-deficient; MCD: methionine- and choline-deficient.
High fat methionine and choline-deficient (HFMCD) diet fed wild-type mice Five week old male C57BL/6N mice were fed with Methionine and Choline deficient diet supplemented with 60 kcal % fat (A060713011316, Research Diets); control mice were fed with normal chow (NC, Specialty Feeds). Durations of diet and antibody therapies are described.
(§2) Mice were injected intraperitoneally with either antagonist anti-IL-11 antibody, antagonist anti-IL11RA antibody or an identical amount of IgG isotype control for the treatment durations outlined in the figures.

[1] = tested on: mice with HFMCD-induced liver fibrosis; experiment: HFMCD fibrosis reversal with switch to normal chow plus antibody; format: in vivo, mouse; conditions: for regression of Erk activation: after removal of the metabolic stimulus; for reversal of hepatic collagen content: HFMCD 10 weeks then normal chow; for Mmp2 expression / Timp1 expression: mice with severe fibrosis
Protocol: FIGS. 21A to 21L. Inhibition of Il-11 signalling reverses NASH pathologies in preclinical models and HSC-to-myofibroblast transformation. (A) Schematic showing therapeutic dosing regime in NASH reversal experiment for data shown in (B-G). Mice were fed with WDF for 16 weeks to induce NASH and then treated with (10 mg/kg) X209 or IgG for 8 weeks while they were on continuous WDF feeding. (B) Total liver hydroxyproline content, the levels of (C) liver triglycerides, (D) serum ALT, (E), fasting blood glucose, (F) serum triglycerides, and (G) serum cholesterol in mice on NC and IgG- and X209-treated WDF (n≥5/group). (H) Schematic showing reversal experiment in which fibrosis was established by feeding mice HFMCD for 10 weeks and then replacing this with NC and initiating antibody (X203 and X209) therapy. Mice were euthanized at the indicated time points. (I) Total liver hydroxyproline content (dotted line represents the mean value of NC=0.93) and (J) relative mRNA expression of Mmp2/Timp1 at 1-, 3-, 6-weeks after concurrent metabolic intervention (diet switch) and X203, X209, or IgG treatment (n≥3/group). Quantification of ACTA2^+ve immunostaining (scale bars, 200 μm) following incubation (K) with TGFβ1 or (L) with PDGF, either prior to or after the addition of X203, X209, or IgG (n=5/group). (K-L) TGFβ1 (5 ng/ml), PDGF (20 ng/ml), IgG, X203 and, X209 (2 μg/ml). (B-G, K-L) Data are shown as box-and-whisker with median (middle line), 25th-75th percentiles (box) and min-max percentiles (whiskers); (I) data are shown as mean±s.d; (J) data are represented as line chart (mean) and transparencies indicate s.d. (B) Two-tailed Student's t-test (C-G,K-L) two-tailed, Tukey-corrected Student's t-test; (I-J) two-way ANOVA. FC: fold change; NC: normal chow; WDF: Western diet+15% (w/v) fructose; HFMCD: high fat methionine- and choline-deficient.
Furthermore, combination therapies may be beneficial for reversing fibrosis in NASH′. To address these points, severe liver fibrosis was established using HFMCD for 10 weeks, then converted mice to normal chow, mimicking a robust metabolic intervention, and initiated anti-IL-11 treatments in parallel (FIG. 21H).

[2] = tested on: mice with folate-induced kidney injury; experiment: Weight loss after folate-induced acute kidney injury; format: in vivo, mouse
Protocol: Kidney injury was induced by IP injection of folic acid (180 mg/kg) in vehicle (0.3M NaHCO3) to 10-week old male mice; control mice were administered vehicle alone. Animals were sacrificed 28 days post-injection. Mice were intraperitoneally injected every 3 days with 20 mg/kg of anti-IL-11 antibody, anti-IL-11 RA antibody or identical concentration of IgG isotype control starting from 1 hour before folic acid administration until the mice were sacrificed.
In a second experiment kidney injury was induced as before by IP injection of folic acid. Mice were only treated with anti-IL-11 antibody or IgG control from 21 days after kidney injury. Animal weight was assessed before and after antibody treatment.

MCD-fed db/db mice = experiment: MCD-fed db/db mouse NASH model; format: in vivo
Protocol: as §1
Male BKS.Cg-Dock7m+/+LeprdbJ (db/db) mice on C57BL/6J genetic background were 12 weeks of age and at the hepatic steatosis stage when they were fed methionine- and choline-deficient diet (MCD, A02082002BRi, Research Diets) for 8 weeks; control mice were of the same genotype. Durations of diet and antibody therapies are described.
as §2

[3] = after three weeks of antibody treatment
[4] = at six weeks of antibody treatment
[5] = 20 mg/kg every 3 days from 1 hour before folic acid

| Molecule | Erk activation (liver) (HFMCD-fed mice) | liver damage (HFMCD-fed mice) | liver fibrosis (HFMCD-fed mice) | liver inflammation (HFMCD-fed mice) | steatosis (HFMCD-fed mice) | regression of Erk activation [1] | reversal of hepatic collagen content [1, 3] | reversal of hepatic collagen content [1, 4] | Mmp2 expression [1] | Timp1 expression [1] | body weight [2, 5] | ALT levels (MCD-fed db/db mice) | hepatic Erk activation (MCD-fed db/db mice) | hepatic fibrosis (MCD-fed db/db mice) | hepatic inflammation (MCD-fed db/db mice) | hepatic steatosis (MCD-fed db/db mice) | body weight ([2]; treated from 21 days after kidney injury) |
| --- | --- | --- | --- | --- | --- | --- | --- | --- | --- | --- | --- | --- | --- | --- | --- | --- | --- |
| B1 | abolished | inhibited or reversed | inhibited or reversed | inhibited or reversed | unchanged | accelerated | 24% | 46% | rapidly upregulated | downregulated | returned to normal, or near normal, weight by 3 weeks later |  |  |  |  |  |  |
| B2 | abolished | inhibited or reversed | inhibited or reversed | inhibited or reversed | unchanged | accelerated | 18% | 37% | rapidly upregulated | downregulated | returned to normal, or near normal, weight by 3 weeks later | lowering | inhibited | reduced | reduced | reduced | started to regain weight upon initiation of treatment |
